Assay results published in paper PMC6599224.

Molecular target: T1, IscR-WT (Pseudomonas aeruginosa PAO1) (UniProt Q9HXI7)
T1 sequence: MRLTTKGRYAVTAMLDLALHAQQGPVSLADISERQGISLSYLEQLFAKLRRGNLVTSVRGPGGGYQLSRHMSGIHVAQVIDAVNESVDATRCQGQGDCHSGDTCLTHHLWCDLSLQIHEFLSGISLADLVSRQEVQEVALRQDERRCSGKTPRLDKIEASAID
Assay: DNase I footprinting
Details: EMSA: 20 mM Tris-HCl pH 8.0, 50 mM KCl, 4 mM MgCl2, 0.5 mM EDTA, 0.02 mg/ml BSA, 5 mM DTT, 10% glycerol, 200 ng poly(dI-dC), 3 fmol probe in 25 ul, 25 C …

For “GCCTTTCTGCGGGAGCTGGCCATCGACGTTGACCGGGTTGCCCTTGAGAGTCACTTGAGCCATTGCGTTGATCCTTCTAGTCAGTGAGAAGCCGCCGGCCCTGTGGCCGGCGGCGGAAGCATTCGGGGCCGGCGACGATGCTAGCACGCTTTACCCGAGCGAAAACCTCGGGTTTGAGCATCGCCGTCCCCCGAGGCTCAACTCCTGGCCTTGGCGAAATACTCCCGGGTC (double strand) [tpx promoter]”, the binding was “binds”.
